Test results from the supplement of paper PMC12764529.
± gives the half width of the 95% confidence interval.

assay: folding stability dG unfold (combined trypsin and chymotrypsin); higher = more stable
Procedure, shortened: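 Sequencing followed digestion of designed mini-proteins with trypsin and chymotrypsin, each at 11 concentrations in threefold dilutions together with a no-protease condition. The mini-proteins were under 80 residues, had no cysteine, sat in a PA-tagged cDNA display construct, and were kept only if AlphaFold2 dimer inter-PAE was above 15. From the counts, Bayesian fitting gave K50, and unfolding free energy was derived against a sequence-predicted unfolded-state K50 and a shared folded-state K50, per protease or combined.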

| Sequence | folding stability dG unfold [kcal/mol] |
| --- | --- |
| SAGGSAGGMYVKIKVTMTADELKKLFPNIKKGEKVTVELVIKVEKAPPVKVEKKKEKKVEVKLKSAGGSAGG [r6_211_TrROS_Hall] | 1.74 ± 0.14 |
| STIMIMFRSPEDLEKFLNEAKEMIRNGKNVPITIMAHGPNGRYWMFTIDIKMDPDGNPKIEIEWEPVPPDSA [r9_1023_TrROS] | 3.89 ± 0.099 |
| SAGGSAGGKVTVDPAKVKAILTLKDGSKLIVLEDGVLLYNPKTEKVTLVSLSDLKKLPEDAPVPSAGGSAGG [r6_889_TrMRF] | 1.74 ± 0.054 |
| SAGGGWKPIGKEEITLPFGIKVTVDIWTWPDGMIMIMIEIEIPVPPPKPPVPPMSPEDMKDMNEDNGSAGGS [r16_6_TrROS] | 3.2 ± 0.43 |
| SAGMVVVKVTLPGPEEALRAAAAAVPVPVSIERDPEKPDVWTATITFPSPELAPVFVEAFAALGAEVVGSAG [r14_745_JUSTAS] | 1.69 ± 0.069 |
| SAGGSELENMSLEELLARAEELARELAEETGRTVTVTVEVRVRLPDGSTRTFRFTVTLTVLREEDLSAGGSA [r2_157_TrROS_Hall] | 4.519 ± 0.041 |
| SAGGPDWQTIRITFWFDSPEDAEEEVRNIARTMGLPPEGIKVEITDFEPREVNGKNYYMVEAEITIPSAGGS [r16_240_TrROS] | 3.93 ± 0.062 |
| SAGPKTLLLNIPPGEDVELLIGDKPYRIKVDPERLIGYAFDPETGEIFLIFHDPEKPIALITVFPSPPLSAG [r5_302_TrMRF] | 2.18 ± 0.12 |
| SAGGSAGGSAGGSVAYVAPDGDKLIVRVVRPDGSVEEKEFDSLEDLKTLPDDVPVAFLVSAGGSAGGSAGGS [r4_447_TrMRF] | 0.516 ± 0.11 |
| SAGGSAGGSMYIVRIEVVNEETGKTEEIELEVSEEEAEELAKELAEKLPNIKEIKVEIRPLPESAGGSAGGS [r12_757_TrROS_Hall] | 1.66 ± 0.21 |
| SAGGSAGGSAMTLRVKITLPDGRELELEIEAETEEEALAALKELIKKLFPEVKEVKIEVEPESAGGSAGGSA [r18_434_TrROS_Hall] | 4.84 ± 0.4 |
| SAGGSAGGSAGGTKTIPFPIEEIEVEHNPDNNYYHVTIRFPDNGKPITFMFPPGDTITISAGGSAGGSAGGS [r10_819_TrROS] | 0.868 ± 0.12 |
| SAGGSAGGSTALVYKNGVTVTFPVFFPDTAPAVVTLSIPSPEEAAAAVAALRAAGHAVTVEPLASAGGSAGG [r6_872_JUSTAS] | 1.29 ± 0.031 |
| SAGGSAMMTLEEAIEKAAKNIPVGEKKIIEIKLEKGTFTVEIEKIGPKEVKIKILKISKGPEEEEISAGGSA [r15_150_TrMRF] | 4.61 ± 0.3 |
| SAGGSAMKIKPGETVTIKVKNKETGEWFEAKIVKVDEEKGEIEIEVEVNGKKYTFTIPAEDIEIVESAGGSA [r15_381_TrROS_Hall] | 2.89 ± 0.29 |
| SANGKEYTFTIEIRVRDPENGQPWTIRITVPIWYDPDDGKLDIDIDVTPTPGMPKEWAERIAKEIIEAISAG [r14_152_TrROS] | 3.6 ± 0.076 |

| Sequence | folding stability dG unfold [kcal/mol] |
| --- | --- |
| SAGGSEILKKLFPNVKKIEIEVEEVEVKYSEEEKKANPNKKVKVEVKVKVKIKIKIELEFDKNGKLSAGGSA [r2_404_TrROS_Hall] | 3.09 ± 0.61 |
| SAGGSAGGSMYVVKIKLKVYGENGEEYYFELELEVPEDELGEIEIELPGENLEFEAEVEVLPGSAGGSAGGS [r12_354_TrMRF] | 3.38 ± 0.14 |
| SAGGSAGGSMTIVDPETGETLEIIEVKKNEDGKESFIFRISSPKPRYFIIDKDGNIRVIEKKDSAGGSAGGS [r12_205_TrROS_Hall] | 1.34 ± 0.074 |
| SAGGSAGGSNNPDKKKKPRYVVIQIELKWYPNPNGQWSPELEITATVPAGDLEDKDDAIKDIISAGGSAGGS [r12_933_TrROS] | 1.68 ± 0.17 |
| SAGGSAGGSAGKIDPKDIEKVEFEIDEESGKGKAFVILKNGEPAEIEFSSIEEAIKALLGSAGGSAGGSAGG [r11_339_TrMRF] | 1.37 ± 0.16 |
| SAGGGNIRPVRIERLPDGSLLIVLVADSPDDAFSDESTLDALPGEEELLEARYDPSTGRVLLVRRFRPSAGG [r13_413_TrMRF] | 1.55 ± 0.071 |
| SAPEVFRFTIPRYRDDYEFDGDGYPVLKERKPVAPLEVEAVVFEDGTVRVRVGDEVREFPLGVSPEELFSAG [r14_909_TrMRF] | 0.566 ± 0.1 |
| SAGGSAGGSKKKLTLTLKVEYVDEETGEKRTVTLTITAESEEEAKAALEELAKKLPPGARIEVSAGGSAGGS [r20_211_TrROS_Hall] | 4.21 ± 0.19 |
| SAMMTPEERAFVERLRALFAERGGRIEIRFFEEPDRIEILVEEDDPELIREIREELARIPFPISRIVEESAG [r14_284_TrMRF] | 3.33 ± 0.04 |
| SAMTVERLPDGSLRITIPDPNSDTTYTIEIRRLPDGSYEVTITTTKPDGSTTTTTRPMSEEEAIAEVLASAG [r14_179_JUSTAS] | 3.6 ± 0.055 |
| SAGGSAGGSAGMIVAKVVEYDPETGEITIEVDGKKITLPLKNMKIKEVNGYLVIEFKEDDSAGGSAGGSAGG [r17_403_TrROS_Hall] | 3.25 ± 0.072 |
| SAELEELLKKAEELAKKNNVEVEVEVKLELEPVKVTEYKLNKDGKPVEKKEEEELELRLEIKVKIRPKKSAG [r14_728_TrROS_Hall] | 2.58 ± 0.35 |
| ATVTVEKLPDGYRVTVTIGATYIDPETGKPVELSAPVTAFVPPEVPDPEVAAKRAAAEALAEFLAALPEGGS [r1_414_TrMRF] | 1.85 ± 0.091 |
| SAGGSAGGSAGGLPPGAKVKVEIEISYDDPFSGPTNEYNSFPVELNFEPPEPIPTDPRLNSAGGSAGGSAGG [r7_522_TrMRF] | < -1 |
| SAGGSAGGSDTIVVTLPDGTKITYDKENNEVYVYNLKTKKKIKFPKNMSLEEVLKAIKKLKKPSAGGSAGGS [r12_832_TrROS_Hall] | 2.71 ± 0.082 |
